This is an account of results in patent US20060147922A1 (published 2006).

Assay [1] has as its target T1, GAL4 DBD-EDDM fusion (full length EDD C2768A mutant bait) (yeast; human, UniProt O95071 1-2799).
T1 construct: Bait for the yeast two-hybrid screen of a human placenta cDNA library; also called full length EDDM (C2768A mutant) bait
Briefly: yeast two-hybrid screen; truncated clone. The source says:
(§1) The cDNAs for full length EDD mutant and carboxy domain mutants (EDDM and EDD5M) were screened against a human placenta cDNA library in the pACT2 vector by the yeast two-hybrid method (Matchmaker 2, Clontech, Palo Alto, Calif., USA). Stable transformants of Saccharomyces cerevisiae strain Y190 expressing EDD fusion protein were transformed with the library using the lithium acetate method and 2-3×10⁶ primary transformants selected on his-leu-trp-plates. Following a second round of selection on the same medium, colonies were assayed for β.galactosidase activity using a filter-based assay. Interacting plasmids that were positive for β.galactosidase only in the presence of the EDD bait plasmids were transformed into E. coli DH5α cells for further analysis. Manual sequencing was carried out using ³³P end-labelled primer in conjunction with the fmol Cycle sequencing kit (Promega Corp., Madison, Wis., USA). Sequences were analysed by Blast searches of the Genbank and EMBL databases and predicted proteins analysed for motifs using the ISREC Profile Scan Server (www.isrec.isb-sib.ch).

Assay [2] addresses T2, EDDM, full length EDD with Cys2768 to Ala mutation (human, UniProt O95071 1-2799).
T2 construct: Stably overexpressed in HEK 293 cells (FLAG-CIB co-immunoprecipitation) or transfected for reporter assays; also called mutant EDD; ligase-defective EDD mutant
Briefly: anti-FLAG M2 immunoprecipitation from HEK 293 cells overexpressing mutant EDD, EDD western blot. Here is the method: Left, HEK 293 cells overexpressing mutant EDD were transfected with a plasmid encoding Flag-tagged CIB or empty vector (vec). Extracts from these cells were subjected to immunoprecipitation using anti-FLAG Ab M2. Right, nuclear extracts prepared from MCF-7 cells following treatment with DNA damage agents phleomycin (Phleo) or hydroxyurea (HU) were incubated with either GST or GST-CIB fusion protein bound to glutathione-Sepharose beads. Bound proteins from both procedures were analysed by SDS-PAGE and western blotted for EDD and amounts bound are indicated as percentages relative to input.
Stable HEK 293 cells overexpressing EDDM were transfected with pCMVTag2C-CIB or empty vector using Fugene 6 reagent (Roche) for 24 h. Following 6 h incubation in the presence of MG132, cells were harvested and lysates prepared and one mg total protein incubated with anti-FLAG antibody M2 coupled to Sepharose (Sigma Chemical Co., St Louis, USA) for 2 h at 4° C. Beads were recovered by centrifugation and washed extensively in lysis buffer. Western blotting for EDD has been described (Callaghan et al, Oncogene 17, 3479-3491, 1998).
Background: In western blotting, separated proteins are transferred to a membrane and probed.

The target in assay [3] is T1, GAL4 DBD-EDDM fusion (full length EDD …). Briefly: yeast two-hybrid screen.
From the text: as §1, with “Manual sequencing was carried out using ³³P end-labelled primer in conjunction with the fmol Cycle sequencing kit (Promega Corp., Madison, Wis., USA).” left out
Further yeast two-hybrid screening was aimed at identifying other proteins involved in the ubiquitinylation or coactivation functions of EDD. […] The interaction between CIB and full length EDD initially detected in the yeast two-hybrid system (FIG. 10A) was confirmed by pull-down of in vitro translated EDD proteins with GST-CIB (FIG. 10B). […]

In assay [4] the target is T3, EDDF2, central domain of EDD (aa 889-1877) (human, UniProt O95071 889-1877).
T3 construct: In vitro translated, 35S-labelled; also called central third; central region of EDD
T3 sequence: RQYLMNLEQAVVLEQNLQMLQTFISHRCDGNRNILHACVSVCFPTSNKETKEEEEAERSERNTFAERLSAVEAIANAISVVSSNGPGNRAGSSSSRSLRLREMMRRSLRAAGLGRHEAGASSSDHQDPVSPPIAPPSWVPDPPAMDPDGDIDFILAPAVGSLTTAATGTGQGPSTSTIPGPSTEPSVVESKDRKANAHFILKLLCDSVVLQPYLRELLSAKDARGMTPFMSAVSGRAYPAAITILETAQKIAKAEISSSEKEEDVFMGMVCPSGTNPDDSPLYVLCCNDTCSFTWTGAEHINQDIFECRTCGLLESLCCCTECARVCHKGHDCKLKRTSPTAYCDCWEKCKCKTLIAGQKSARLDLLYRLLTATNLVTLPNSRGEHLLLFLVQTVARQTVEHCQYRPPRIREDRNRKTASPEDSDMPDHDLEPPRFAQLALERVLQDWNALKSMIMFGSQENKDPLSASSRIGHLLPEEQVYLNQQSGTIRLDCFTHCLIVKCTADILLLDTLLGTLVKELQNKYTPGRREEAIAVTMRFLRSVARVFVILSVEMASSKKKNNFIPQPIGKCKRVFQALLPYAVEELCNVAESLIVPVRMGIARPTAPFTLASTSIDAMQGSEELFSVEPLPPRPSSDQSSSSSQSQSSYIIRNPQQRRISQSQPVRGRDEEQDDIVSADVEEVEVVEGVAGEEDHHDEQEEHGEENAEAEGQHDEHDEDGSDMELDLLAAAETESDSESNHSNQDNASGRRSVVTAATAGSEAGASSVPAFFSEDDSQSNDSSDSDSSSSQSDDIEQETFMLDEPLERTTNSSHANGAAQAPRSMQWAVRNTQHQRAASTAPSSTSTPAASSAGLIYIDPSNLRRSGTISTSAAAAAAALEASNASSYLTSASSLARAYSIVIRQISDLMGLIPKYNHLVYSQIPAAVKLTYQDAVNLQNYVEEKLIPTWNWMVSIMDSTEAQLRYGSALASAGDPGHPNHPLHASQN
Briefly: GST-importin α5 pull-down of IVT 35S-EDD fragments.

In assay [5] the target is T4, EDDF3, carboxy domain of EDD (aa 1877-2799) (human, UniProt O95071 1877-2799).
T4 construct: In vitro translated, 35S-labelled; also called carboxy third; carboxy terminal region of EDD
T4 sequence: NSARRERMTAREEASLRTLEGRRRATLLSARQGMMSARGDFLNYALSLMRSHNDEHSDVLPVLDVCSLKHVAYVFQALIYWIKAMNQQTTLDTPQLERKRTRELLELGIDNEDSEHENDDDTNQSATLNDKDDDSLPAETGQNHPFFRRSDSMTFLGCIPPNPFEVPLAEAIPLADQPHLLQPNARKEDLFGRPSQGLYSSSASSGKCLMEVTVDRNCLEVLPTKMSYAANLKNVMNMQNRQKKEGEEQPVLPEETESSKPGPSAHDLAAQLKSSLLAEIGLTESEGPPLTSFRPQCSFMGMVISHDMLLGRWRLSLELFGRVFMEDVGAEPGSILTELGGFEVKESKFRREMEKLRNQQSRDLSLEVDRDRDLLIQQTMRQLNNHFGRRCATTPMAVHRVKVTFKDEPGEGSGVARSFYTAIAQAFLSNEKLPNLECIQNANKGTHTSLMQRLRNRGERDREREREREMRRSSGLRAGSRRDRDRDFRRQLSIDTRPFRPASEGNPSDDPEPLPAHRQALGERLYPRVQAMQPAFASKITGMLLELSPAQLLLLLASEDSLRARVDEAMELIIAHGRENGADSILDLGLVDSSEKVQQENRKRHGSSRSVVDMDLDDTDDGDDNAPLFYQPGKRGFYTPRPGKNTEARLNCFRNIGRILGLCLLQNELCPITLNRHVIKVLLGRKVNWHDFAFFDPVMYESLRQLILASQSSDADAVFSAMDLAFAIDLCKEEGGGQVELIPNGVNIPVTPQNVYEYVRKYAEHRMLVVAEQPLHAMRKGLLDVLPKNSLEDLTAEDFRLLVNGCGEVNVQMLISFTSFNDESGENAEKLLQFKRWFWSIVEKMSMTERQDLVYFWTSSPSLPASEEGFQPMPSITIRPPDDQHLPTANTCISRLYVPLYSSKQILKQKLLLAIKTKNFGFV
Briefly: GST-importin α5 pull-down of IVT 35S-EDD fragments.

Assay [6] addresses T5, EDDF1c (EDD aa 1-419) (human, UniProt O95071 1-419).
T5 construct: In vitro translated, 35S-labelled; Contains neither N-terminal NLS
T5 sequence: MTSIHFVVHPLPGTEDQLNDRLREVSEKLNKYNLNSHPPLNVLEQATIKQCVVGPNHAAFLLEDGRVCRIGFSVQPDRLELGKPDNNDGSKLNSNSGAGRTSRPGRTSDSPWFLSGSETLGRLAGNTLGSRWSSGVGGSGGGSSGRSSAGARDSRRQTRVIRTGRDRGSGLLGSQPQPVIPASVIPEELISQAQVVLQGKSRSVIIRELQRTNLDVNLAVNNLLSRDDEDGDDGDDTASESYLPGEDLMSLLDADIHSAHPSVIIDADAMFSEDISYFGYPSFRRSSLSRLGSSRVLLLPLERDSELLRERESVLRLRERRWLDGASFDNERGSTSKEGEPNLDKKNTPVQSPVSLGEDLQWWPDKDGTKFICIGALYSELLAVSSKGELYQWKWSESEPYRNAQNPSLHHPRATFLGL
Briefly: GST-importin α5 pull-down of IVT N-terminal EDD derivatives.

B1: GAL4 AD-importin α5 fusion, aa 229-538 (Impα-C) (other, not shown: large carriers)
chain: TRNAVWALSNLCRGKSPPPEFAKVSPCLNVLSWLLFVSDTDVLADACWALSYLSDGPNDKIQAVIDAGVCRRLVELLMHNDYKVVSPALRAVGNIVTGDDIQTQVILNCSALQSLLHLLSSPKESIKKEACWTISNITAGNRAQIQTVIDANIFPALISILQTAEFRTRKEAAWAITNATSGGSAEQIKYLVELGCIKPLCDLLTVMDSKIVQVALNGLENILRLGEQEAKRNGTGINPYCALIEEAYGLDKIEFLQSHENQEIYQKAFDLIEHYFGTEDEDSSIAPQVDLNQQQYIFQQCEAPMEGFQL
notes: Yeast two-hybrid prey clone; also called amino-truncated importin α5; truncated importin α5 clone
Regarding B1, the binding result in assay [1] is “binds”.

B2: FLAG-tagged CIB (full-length CIB in pCMVTag2C) (other, not shown: small tags and cut ends)
chain: MGGSGSRLSKELLAEYQDLTFLTKQEILLAHRRFCELLPQEQRTVESSLRAQVPFEQILSLPELKANPFKERICRVFSTSPAKDSLSFEDFLDLLSVFSDTATPDIKSHYAFRIFDFDDDGTLNREDLSRLVNCLTGEGEDTRLSASEMKQLIDNILEESDIDRDGTINLSEFQHVISRSPDFASSFKIVL
notes: Expressed in HEK 293 cells overexpressing EDDM
On to B2, for which, in assay [2], the binding result is given as “binds”.

B3: GAL4 AD-CIB fusion, full length CIB/KIP (other, not shown: large carriers)
chain: B2 chain
notes: Yeast two-hybrid prey clone from a human placenta cDNA library; also called CIB/KIP full-length clones
For the molecule B3, the binding result in assay [3] is reported as “binds”.

B4: GST fused to amino acids 263-538 of human importin α5 (NPI-1) (other)
chain: LFVSDTDVLADACWALSYLSDGPNDKIQAVIDAGVCRRLVELLMHNDYKVVSPALRAVGNIVTGDDIQTQVILNCSALQSLLHLLSSPKESIKKEACWTISNITAGNRAQIQTVIDANIFPALISILQTAEFRTRKEAAWAITNATSGGSAEQIKYLVELGCIKPLCDLLTVMDSKIVQVALNGLENILRLGEQEAKRNGTGINPYCALIEEAYGLDKIEFLQSHENQEIYQKAFDLIEHYFGTEDEDSSIAPQVDLNQQQYIFQQCEAPMEGFQL
notes: also called GST-importin α5; GST-importin α; not shown: glutathione S-transferase (GST) fusion partner from a bacterial plasmid
Regarding B4, the binding result in assay [4], in assay [5] and in assay [6] was “no binding” throughout.
